Source: patent US20250042957A1 (Molecular Partners, published 2025)
Read-outs that look alike come from different tables or passages of the source. Values belong to the binder of their own block, whether it stands above or below them.

What was measured:
[1] = molecular target: T1, scCD3εγ; assay: ELISA: plate-bound biotinylated scCD3εγ, His-tagged construct titrated in presence of 100 nM soluble VEGF
T1 chain 1: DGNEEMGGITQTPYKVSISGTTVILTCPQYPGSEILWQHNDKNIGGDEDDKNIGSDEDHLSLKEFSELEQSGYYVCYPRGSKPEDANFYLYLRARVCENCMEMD
T1 chain 2: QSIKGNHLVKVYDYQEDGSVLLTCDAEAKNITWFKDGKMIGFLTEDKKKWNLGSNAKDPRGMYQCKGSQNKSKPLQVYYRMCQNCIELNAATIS
Procedure: (§1) The difference in binding of Switchdrug DARPins to scCD3εγ in presence and absence of VEGF was assessed. […] Said Switchdrug DARPins were mixed with a constant concentration of VEGF (100 nM) and tested for binding to scCD3εγ. […] The difference in EC50 of a construct in presence and absence of VEGF can be referred to as the “activation window”.
(§2) Switchdrug DARPins that were mixed with VEGF were titrated and pre-incubated for 1 day with VEGF in order to establish the thermodynamic equilibrium. These samples were loaded on the ELISA plate, incubated and washed, before the bound Switchdrug DARPins were detected as described above.

[2] = molecular target: T1, scCD3εγ; assay: ELISA: plate-bound biotinylated scCD3εγ, His-tagged construct titrated without and with 100 nM soluble VEGF
Procedure: as §1, §2

[3] = molecular target: T2, VEGF165 (UniProt P15692-4 27-191, biotinylated in the ELISA of Example 4 (site not stated)); assay: ELISA: plate-bound biotinylated VEGF165, His-tagged construct titrated, no soluble VEGF, anti-His-HRP detection
T2 construct: also called biotinylated VEGF165; soluble VEGF

[4] = molecular target: T2, VEGF165; assay: SPR (ProteOn), VEGF165 immobilized, single-trace 50 nM, 25 C
[5] = molecular target: T2, VEGF165; assay: ELISA: plate-bound biotinylated VEGF165, His-tagged binder titrated, anti-His-HRP detection
Procedure: Binding is detected via an HRP-labeled anti-His antibody.
Then a titration of the Switchdrug DARPins was applied, incubated and washed. Detection of bound his-tagged constructs was done by anti-RGS(his)4 mAb HRP conjugate, and detected by TMB substrate.

[6] = molecular target: T1, scCD3εγ; assay: ELISA: plate-bound biotinylated scCD3εγ, His-tagged construct titrated, no VEGF
Procedure: as §1, §2

[7] = molecular target: T1, scCD3εγ; assay: as above
Procedure: as §2

[8] = molecular target: T1, scCD3εγ; assay: ELISA: plate-bound biotinylated scCD3εγ, His-tagged construct titrated in presence of 100 nM soluble VEGF
Procedure: as §1, §2

[9] = molecular target: T1, scCD3εγ; assay: ELISA: plate-bound biotinylated scCD3εγ, His-tagged construct titrated without and with 100 nM soluble VEGF
Procedure: as §1, §2

[10] = molecular target: T1, scCD3εγ; assay: ELISA on scCD3εγ, DARPin titrated
[11] = molecular target: T1, scCD3εγ; assay: SPR, bio-scCD3εγ coated on NAD chip, DARPin 333.33-4.11 nM
[12] = molecular target: T1, scCD3εγ; assay: ELISA: plate-bound biotinylated scCD3εγ, His-tagged α-CD3 mono-DARPin titrated, no VEGF
[13] = molecular target: T1, scCD3εγ; assay: as above
[14] = molecular target: T1, scCD3εγ; assay: as above
[15] = molecular target: T1, scCD3εγ; assay: as above
[16] = molecular target: T1, scCD3εγ; assay: as above
[17] = molecular target: T1, scCD3εγ; assay: as above
[18] = molecular target: T1, scCD3εγ; assay: as above
[19] = molecular target: T1, scCD3εγ; assay: ELISA: plate-bound biotinylated scCD3εγ, His-tagged α-CD3 mono-DARPin titrated in presence of 100 nM soluble VEGF
Procedure: (§3) ELISA assays offer an easy and qualitative way to determine the binding of the Switchdrug DARPin constructs to a target. The difference in binding of Switchdrug DARPins to scCD3εγ in presence and absence of VEGF was assessed. […] Said Switchdrug DARPins were mixed with a constant concentration of VEGF (100 nM) and tested for binding to scCD3εγ. […] The difference in EC50 of a construct in presence and absence of VEGF can be referred to as the “activation window”.
as §2

[20] = molecular target: T1, scCD3εγ; assay: as above
Procedure: as §3, §2

T2 sequence (P15692 other isoform, or with tags, fused parts or gaps limits assumed): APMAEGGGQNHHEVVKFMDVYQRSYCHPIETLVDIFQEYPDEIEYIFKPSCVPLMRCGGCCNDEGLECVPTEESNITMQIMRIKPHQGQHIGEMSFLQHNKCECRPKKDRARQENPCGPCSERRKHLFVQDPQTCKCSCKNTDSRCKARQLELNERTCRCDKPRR

- EC50 (read off the curve) [1]: ~50 nM
- shift in EC50 upon addition of 100 nM VEGF [2]: ~19 fold
- EC50 (read off the curve) [3]: ~20 nM
B1: Switchdrug DARPin 18-B (designed binder)
chain: MRGSHHHHHHGSDLDKKLLEAARAGQDDEVRILLKAGADVNAKDSTGWTPLHLAAPWGHPEIVEVLLKAGADVNAKDFQGWTPLHLAAAAGHLEIVEVLLKAGADVNAKDVYGWTPLHIAAASGHLEIVEVLLKAGADVNAKDWLGWTPLHLAASHGHLEIVEVLLKAGADVNAQDKSGKTPADLAARAGHQDIAEVLQKAAGSPTPTPTTPTPTPTTPTPTPTGSDLGKKLLQAARAGQLDEVRELLKAGADVNAKDQYGRTPLHLAAIKGHLEIVEVLLKAGADVNAKDSLGYTPLHLAAVEGPLEIVEVLLKAGADVNAKDAYGQTPLHIAAAWGHLEIVEVLLKAVADVNAQDKSGKTPADLAARAGHQDIAEVLQKAAGSPTPTPTTPTPTPTTPTPTPTGSDLGQKLLEAAWAGQDDEVRELLKAGADVNAKNSRGWTPLHTAAQTGHLEIFEVLLKAGADVNAKNDKRVTPLHLAAALGHLEIVEVLLKAGADVNARDSWGTTPADLAAKYGHQDIAEVLQKAA
notes: also called 2-in-1 DARPin18 in Format B

- Kd [4]: 0.21 nM
- koff [4]: 0.00014 s⁻¹
- kon [4]: 646000 M⁻¹ s⁻¹
- EC50 (read off the curve) [5]: ~0.5 nM
B2: VEGF-binder (SEQ ID NO: 1) (designed binder)
chain: DLDKKLLEAARAGQDDEVRILLKAGADVNAKDSTGWTPLHLAAPWGHPEIVEVLLKAGADVNAKDFQGWTPLHLAAAAGHLEIVEVLLKAGADVNAQDKSGKTPADLAADAGHEDIAEVLQKAA
notes: said to be disclosed in WO 2016/156596

- EC50 (read off the curve) [6]: ~70 nM
- EC50 (read off the curve) [7]: ~50 nM
- EC50 (read off the curve) [8]: ~3 nM
- shift in EC50 upon addition of 100 nM VEGF [9]: ~27 fold
B3: Switchdrug DARPin 17-1 (designed binder)
chain: MRGSHHHHHHGSDLGQKLLEAAWAGQDDEVRELLKAGADVNAKNSRGWTPLHTAAQTGHLEIFEVLLKAGADVNAKNDKRVTPLHLAAALGHLEIVEVLLKAGADVNARDSWGTTPADLAAKYGHQDIAEVLQKAAGSPTPTPTTPTPTPTTPTPTPTGSDLGKKLLQAARAGQLDEVRELLKAGADVNAKDSTGWTPLHLAAPWGHPEIVEVLLKAGADVNAKDFQGWTPLHLAAAAGHLEIVEVLLKAGADVNAKDWLGWTPLHLAASHGHLEIVEVLLKAGADVNAQDKSGKTPADLAARAGHQDIAEVLQKAA
notes: also called 2-in-1 DARPin17 in Format 1

- EC50 (read off the curve) [10]: ~3 nM
- Kd [11]: 2.03 nM
- EC50 (read off the curve) [12]: ~5 nM
- EC50 (read off the curve) [13]: ~5 nM
- EC50 (read off the curve) [14]: ~3 nM
- EC50 (read off the curve) [15]: ~3 nM
- EC50 (read off the curve) [16]: ~3 nM
- EC50 (read off the curve) [17]: ~3 nM
- EC50 (read off the curve) [18]: ~4 nM
- EC50 (read off the curve) [19]: ~4 nM
- EC50 (read off the curve) [20]: ~4 nM
B4: CD3-specific binding domain (SEQ ID NO: 3) (designed binder)
chain: DLGQKLLEAAWAGQDDEVRELLKAGADVNAKNSRGWTPLHTAAQTGHLEIFEVLLKAGADVNAKNDKRVTPLHLAAALGHLEIVEVLLKAGADVNARDSWGTTPADLAAKYGHQDIAEVLQKAA
modifications: biotinylated when used as immobilized SPR ligand (site not stated)
notes: also called α-CD3 DARPin
